Each block holds one molecule with its values, some of them ahead of it. Where no end group is shown, it is not given here.
Assays:
[1] = molecular target: T1, endogenous GHSR1b and NTSR1 on LC319 cells (Homo sapiens, UniProt P30989+Q92847); test: Ligand-receptor binding assay with Cy5-labeled NMU-25; conditions: 1 μM, dose-dependent
T1 construct: endogenous in cells; host or cells: LC319
Description: (§1) To confirm the binding of NMU-25 to endogenous candidate receptors on the NSCLC cell, a receptor-ligand binding assay using LC319 and PC14 cells that express GHSR1b and NTSR1, but not NMU1R and NMU2R were performed. Specifically, trypsinized cells were seeded onto a 96-well (with black wall and clear bottom) microtiter plates 24 hours prior to the assay. The medium was removed and the cells were incubated with CyS-labeled NMU-25 peptide (1 μM) with or without the addition of 10-fold excess unlabeled NMU-25 peptide as the competitor. The plate was incubated in dark for 24 hours at 37° C. and then scanned on 8200 Cellular Detection System (Applied Biosystems) to quantify the amount of CyS fluorescence probe bound to the surface of each cell. (15) Immunocytochemistry for Internalized Receptors

[2] = molecular target: T2, endogenous GHSR1b and NTSR1 on PC14 cells (Homo sapiens, UniProt P30989+Q92847); test: as above; conditions: 1 μM, dose-dependent
T2 construct: endogenous in cells; host or cells: PC14
T2 sequence (P30989 whole entry, one chain of several): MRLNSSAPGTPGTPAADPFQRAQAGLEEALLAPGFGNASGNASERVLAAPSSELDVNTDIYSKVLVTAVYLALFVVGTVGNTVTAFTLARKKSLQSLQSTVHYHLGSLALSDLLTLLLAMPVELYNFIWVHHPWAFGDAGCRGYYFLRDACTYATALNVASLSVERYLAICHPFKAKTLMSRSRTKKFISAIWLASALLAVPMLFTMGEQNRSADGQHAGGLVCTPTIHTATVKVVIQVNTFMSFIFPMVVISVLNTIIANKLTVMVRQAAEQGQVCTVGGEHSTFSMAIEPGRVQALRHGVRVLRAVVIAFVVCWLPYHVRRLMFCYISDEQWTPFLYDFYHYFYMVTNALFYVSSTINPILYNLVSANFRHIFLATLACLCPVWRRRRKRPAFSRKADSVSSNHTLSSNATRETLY
Description: as §1

LC319 cells [3] = test: Measurement of cAMP levels (cAMP EIA); type: cell-based, human; conditions: final concentrations of 3 to 100 μM
Description: Trypsinized LC319, REF-LC-AI, NCI-H358 and SK-MED-1 cells were seeded onto a 96-well microtiter plate (5.0×10^4 cells) and cultured in appropriate medium supplemented with 10% FCS for 24 hours, and then the medium was changed to serum free/1 mM IBMX (isobutylmethylxanthine) 20 min prior to the assay. Next, the cells were incubated with individual concentrations of peptides (NMU-25, GHRL, or NTS) for 20 min and cAMP levels of the cells were measured using cAMP EIA System (GE Healthcare Bio-sciences).

NSCLC cells = test: Competition of NMU-induced cAMP production; type: cell-based
LC319 cells [4] = test: Intracellular Ca^2+ mobilization assay (FLIPR); type: cell-based, human
Description: Trypsinized LC319 cells were seeded onto poly-D-lysine coated 384-well black-wall, clear-bottom microtiter plate (1.0×10^4 cells/ml) 24 hours prior to the assay. The cells were loaded for 1 hour with 4 μM Fluo-3-AM fluorescent indicator dye in assay buffer (Hank's balanced salt solution, 20 mM HEPES, 2.5 mM probenecid), washed three times with assay buffer, and then incubated for 10 min at room temperature before detection on fluorometric imaging plate reader (FLIPR; Molecular Devices). Fluorescence data of Ca^2+ release were collected in real-time at 1 sec intervals for the first 65 sec and at 3 sec intervals for additional 300 sec after individual concentrations of peptide (NMU-25, […], or NTS) treatment. Maximum change in fluorescence over baseline was measured to determine the response of the cells to the individual peptide stimulations.

LC319 cells [5] = test: Flow cytometry of cell cycle after siRNA transfection; type: cell-based, human
Description: Cells were plated at a density of 5×10^5 cells/100-mm dish, transfected with siRNA-expression vectors, and cultured in the presence of appropriate concentrations of geneticin. Four days after transfection, the culture medium was replaced with geneticin-free medium. Cells were incubated for additional 24 hours, then trypsinized, collected in PBS, and fixed in 70% cold ethanol for 30 min. After treatment with 100 μg/ml RNase (Sigma-Aldrich Co.), the cells were stained with 50 μg/ml propidium iodide (Sigma-Aldrich Co.) in PBS. Flow cytometry was performed on Becton Dickinson FACSCalibur and analyzed by Cell Quest software (Becton Dickinson Biosciences). The percentage of nuclei in G0/G1, S, and G2/M phases on the cell cycle and the sub-GI population, were determined from at least 20,000 ungated cells.

COS-7 cells = test: Flow-cytometric binding of rhodamine-labeled NMU-25 to cells; conditions: 0.5-10 μM, 2 hours at room temperature
Description: (11) Cell-Growth and Colony-Formation Assays COS-7 transfectants that stably express NMU were seeded onto 6-well plates (5×10^4 cells/well), and maintained in medium containing 10% FCS and 0.4 mg/ml geneticin for 24, 48, 72, 96, 120, and 144 hours. At each time point, cell proliferation was evaluated by MTT assay using Cell Counting Kit (WAKO). Colonies were counted at 144 hours. All experiments were done in triplicate. Interaction of NMU-25 with COS-7 cells were examined by flow-cytometric analysis. Specifically, subconfluent cells were harvested in Cell Dissociation Solution (Sigma-Aldrich Co.) and suspended in DMEM. Then, 1×10^6 cells/microtube were washed with assay buffer (PBS(−) with 10 mM MgCl2, 2 mM EDTA, and 0.1% BSA), and the cells were incubated with 0.5-10 μM rhodamine-labeled NMU-25 peptide (NMU-25-rhodamine; Phoenix Pharmaceuticals, Inc.) in assay buffer for 2 hours at room temperature. Subsequently, the cells were washed twice with assay buffer.
To detect the population of cells binding to rhodamine-labeled NMU-25, flow cytometry was performed using Becton Dickinson FACSCalibur and analyzed by Cell Quest software. The growth effect of NMU on NSCLC cells was also examined using LC319 cells transiently transfected with plasmids expressing NMU or mock plasmids. The cells were cultured in RPMI containing 10% FCS and geneticin (1 mg/ml) for 18 days, and colonies were counted.

LC319 cells [6] = test: Internalization study with fluorescence ligand of NMU (confocal microscopy); type: cell-based, human
Description: LC319 cells were grown in DMEM containing 10% FCS. The cells were washed in PBS(−), and preincubated for 10 min at 37° C. in DMEM containing 0.1% BSA. The cells were then incubated for various periods of time with Alexa Fluor 594-labeled NMU-25 peptide in DMEM containing 0.1% BSA. At the end of incubation, the cells were washed three times with ice-cold PBS(−), fixed with 4% paraformaldehyde solution, initially for 5 min on ice and then for 15 min at room temperature. The cells were washed, and treated with DAPI. Images were viewed and assessed using confocal microscopy (TCS SP2 AOBS; Leica Microsystems). Optical sections with intervals of 0.25 μm were taken with 63×/1.4 objective.

FLAG-tagged NTSR1 = molecular target: T3, FLAG-tagged NTSR1 (Homo sapiens (Human), UniProt P30989 1-418); test: DSP cross-linking, immunoprecipitation and Western blot of transfected COS-7 cells
T3 construct: Transiently expressed in COS-7 cells; COS-7 cells also express GHSR1b and NTSR1 endogenously, so in the cells transfected only with FLAG-GHSR1b the NTSR1 partner is the endogenous COS-7 protein; also called NTSR1 (p3XFLAG-CMV10 construct); not shown: FLAG tag from the p3XFLAG-CMV10 vector
T3 sequence (P30989 whole entry A200T): as the sequence (P30989 whole entry, one chain of several) above, with A200T counted along it
Description: (§2) Cultured cells were washed twice with ice-cold PBS(−) and incubated with 5 mM Dithiobis [succinimidyl propionate] (DSP) (PIERCE) for 60 min in PBS(−) on ice. The reaction was quenched by incubation with Stop solution (1 M Tris, pH 7.5) at a final concentration of 50 mM Tris for 15 min on ice. The cells were then washed twice with ice-cold PBS(−) and lysed in ice-cold Tx/G buffer (300 mM NaCl, 1% Triton X-100, 10% glycerol, 1.5 MM MgCl₂, 1 mM CaCl₂, and 10 mM iodoacetamide in 50 mM Tris-Cl, pH 7.4) containing protease inhibitor (Protease Inhibitor Cocktail Set III; Calbiochem) for 60 min on ice. […] The solutions were subjected to SDS-PAGE, and receptor proteins were detected by Western blot analysis using mouse monoclonal anti-FLAG M2 antibody, goat polyclonal anti-NTSR1 antibody, or rabbit polyclonal anti-GHSR antibody as the primary antibody, and rec-Protein G-Peroxidase Conjugate (ZYMED Laboratories, Inc.) to detect the antigen-antibody complexes.
To examine direct association between GHSR1b and NTSR1, either or both of FLAG-tagged GHSR1b and FLAG-tagged NTSR1 were transiently expressed in COS-7 cells (FIG. 2A depicts the data of transient GHSR1b expression, and FIG. 2B the expression of both receptors). […] No such species were detected when empty vector (mock) was transfected to COS-7 cells as the negative control.

[7] = molecular target: the molecule itself; test: anti-FLAG immunoprecipitation, SDS-PAGE, immunoblot with anti-FLAG, anti-NTSR1 or anti-GHSR antibody
Excerpt: Cell lysates from COS-7 cells that transiently express the FLAG-tagged GHSR1b, and those co-expressing both the FLAG-tagged GHSR1b and NTSR1 were immunoprecipitated with anti-FLAG antibody, subjected for SDS-PAGE, and then immunoblotted with anti-FLAG antibody (A), with anti-NTSR1 antibody (B), or with anti-GHSR antibody (C). The arrows indicate the monomer, heterodimer, and homodimers of the receptors. The molecular weight (kDa) markers are indicated on the left side of individual panels. Non-specific immunoreactive protein band detected by anti-FLAG antibody is indicated with asterisks.
as §2, with “ice.” for “ice. The cells were then washed twice with ice-cold PBS(−) and lysed in ice-cold Tx/G buffer (300 mM NaCl, 1% Triton X-100, 10% glycerol, 1.5 MM MgCl₂, 1 mM CaCl₂, and 10 mM iodoacetamide in 50 mM Tris-Cl, pH 7.4) containing protease inhibitor (Protease Inhibitor Cocktail Set III; Calbiochem) for 60 min on ice.”

T1 sequence (P30989 whole entry, one chain of several): as the sequence (P30989 whole entry, one chain of several) above

binding to the cell surface [1]: detected to bind to the surface
binding to the cell surface [2]: detected to bind to the surface
Molecule: Cy5-labeled NMU-25: Cy5 fluorescence-labeled NMU-25 peptide for the receptor-ligand binding assay (FRVDEEFQSPFASQSRGYFLFRPRN; ends and bridges not checked; also: Cy5 fluorescence label, site not given here)

Molecule: nerotensin [NTS]
cAMP production (LC319 cells [3]): did not enhance
NMU-induced cAMP production (NSCLC cells): competitively inhibited
intracellular Ca^2+ flux / mobilization (LC319 cells [4]): caused the mobilization response

Molecule: si-EGFP: control siRNA against enhanced green fluorescent protein gene, 5′-GAAGCAGCACGACTTCTTC-3′ (SEQ ID NO: 46) (chemistry not given here)
sub-GI fraction (LC319 cells [5]): 11.2%

B1: rhodamine-labeled NMU-25 peptide: rhodamine-labeled NMU-25 peptide (Phoenix Pharmaceuticals, Inc.) (conjugate)
peptide: MLRTESCRPRSPAGQVAAASPLLLLLLLLAWCAGACRGAPILPQGLQPEQQLQLWNEIDDTCSSFLSIDSQPQASNALEELCFMIMGMLPKPQEQDEKDNTKRFLFHYSKTQKLGKSNVVSSVVHPLLQLVPHLHERRMKRFRVDEEFQSPFASQSRGYFLFRPRNGRRSAGFI
binding to the cell surface (flow cytometry) (COS-7 cells): bound to the surface of COS-7 cells in a dose-dependent manner

B2: NMU-25-Alexa594: Alexa Fluor 594-labeled NMU-25 peptide (conjugate)
peptide: MLRTESCRPRSPAGQVAAASPLLLLLLLLAWCAGACRGAPILPQGLQPEQQLQLWNEIDDTCSSFLSIDSQPQASNALEELCFMIMGMLPKPQEQDEKDNTKRFLFHYSKTQKLGKSNVVSSVVHPLLQLVPHLHERRMKRFRVDEEFQSPFASQSRGYFLFRPRNGRRSAGFI
localization of internalized ligand (LC319 cells [6]; 15-min incubation): concentrated in dots or irregular clusters at more peripheral part of the cytoplasm
localization of internalized ligand (LC319 cells [6]; 45-min incubation): concentrated within small spots clustered in the center of the cells, close to the nucleus
internalization of labeled ligand (xz- and yz-projections) (LC319 cells [6]; confocal microscopy): incorporated within the cells

binding result (FLAG-tagged NTSR1): binds
B3: FLAG-tagged GHSR1b (receptor)
chain: MWNATPSEEPGFNLTLADLDWDASPGNDSLGDELLQLFPAPLLAGVTATCVALFVVGIAGNLLTMLVVSRFRELRTTTNLYLSSMAFSDLLIFLCMPLDLVRLWQYRPWNFGDLLCKLFQFVSESCTYATVLTITALSVERYFAICFPLRAKVVVTKGRVKLVIFVIWAVAFCSAGPIFVLVGVEHENGTDPWDTNECRPTEFAVRSGLLTVMVWVSSIFFFLPVFCLTVLYSLIGRKLWRRRRGDAVVGASLRDQNHKQTVKMLGGSQRALRLSLAGPILSLCLLPSL
notes: Transiently expressed in COS-7 cells; Cross-linked with DSP, immunoprecipitated with anti-FLAG beads and blotted; also called GHSR1b (p3XFLAG-CMV10 construct); not shown: FLAG tag from the p3XFLAG-CMV10 vector
binding result [7]: binds
